# Reference: patent US20200164071A1 (GENSUN BIOPHARMA, published 2020)
# B1: T-08 (antibody, V domains shown)
# VH: QVQLVQSGSELKKPGASVKVSCKASGYTFTNYGMNWVRQAPGQGLEWMGWINTYTGEPTYADDFKGRFVFSLDTSVSTAYLQISSLKAEDTAVYYCARAPPYGYDVRFAYWGQGTLVTVSS
# VL: DVVMTQSPLSLPVTLGQPASISCRSSQSIVHSNGNTYLEWFQQRPGQSPRVLIYKVSDRFSGVPDRFSGSGSGTDFTLKISRVEAEDVGVYYCFQGSHVPWTFGRGTKLEIK
# notes: Anti-human TIGIT monoclonal antibody from mouse hybridoma; also called anti-hu TIGIT mab T-08; anti-TIGIT (T-08)
# B2: T-04 (antibody, V domains shown)
# VH: EVQLVQSGAEVKKPGATVKISCKVSGYTFTDHTIHWVQQAPGKGLEWMGYIYPRDGSSKYNVKFKGRVTITADTSTDTAYMELSSLRSEDTAVYYCATGMLRWFAYWGQGTLVTVSS
# VL: DIQMTQSPSSLSASVGDRVTITCKASQDVFTAVAWYQQKPGKAPKLLIYSASYRYTGVPSRFSGSGSGTDFTFTISSLQPEDIATYYCQQHYSIPLTFGAGTKLEIK
# notes: Anti-human TIGIT monoclonal antibody from mouse hybridoma; also called anti-hu TIGIT mab T-04
# B3: PD-01 mab (antibody, V domains shown)
# VH: EVQLVESGGGLVQPGGSLRLSCAASGFTFSNFLMSWVRQAPGKGLEWVSTISGGGRDTYYVDSVKGRFTISRDNSKNTLYLQMNSLRAEDTAVYYCAKRTTYSMDYWGQGTSVTVSS
# VL: DIQMTQSPSSVSASVGDRVTITCLASQTIGTWLAWYQQKPGKAPKLLIYAATSLADGVPSRFSGSGSGTDFTLTISSLQPEDFATYYCQQFYSIPWTFGGGTKLEIK
# notes: also called anti-PD-1 (PD-01)
# B4: PD-05 (antibody, V domains shown)
# VH: QVQLVQSGAEVKKPGASVKVSCKASGYTFTTYYIYWVRQAPGQGLEWMGGINPGNGGTNFNEKFKIRVTMTRDTSISTAYMELSSLRSEDTAVYYCARRYHGYDGGLDYWGQGTLVTVSS
# VL: DIVLTQSPASLAVSPGQRATITCRASKSVSTSGFSYIHWYQQKPGQPPKLLIYLASNLESGVPARFSGSGSGTDFTLTINPVEANDTANYYCQHTWELPNTFGGGTKVEIK
# notes: also called anti-PD-1 mab PD-05
# Tests used:
# [1] = target: T1, human TIGIT on CHO-K1 cells (human, UniProt Q495A1 23-244); assay: flow cytometry, CHO-K1 cells expressing full-length human TIGIT, PE F(ab')2 goat anti-human IgG Fc (Example 5)
# T1 construct: also called hu TIGIT; TIGIT+CHO-K1 cells
# T1 sequence: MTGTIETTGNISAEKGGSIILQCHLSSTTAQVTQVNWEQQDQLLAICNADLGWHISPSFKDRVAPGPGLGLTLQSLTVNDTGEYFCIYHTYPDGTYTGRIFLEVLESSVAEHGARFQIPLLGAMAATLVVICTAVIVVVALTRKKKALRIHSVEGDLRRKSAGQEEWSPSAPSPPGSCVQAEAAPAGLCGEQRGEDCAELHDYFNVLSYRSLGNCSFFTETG
# Description: (§1) The mixtures were incubated at 4 C for 20 min and washed 3 times. The mixtures were stained with the secondary antibody, PE labeled F(ab′)2-Goat anti-human IgG Fc (Thermo H10104) at 4° C. for 20 min. Cells were washed and resuspended in 7AAD solution and fixed in 10% neutral buffered formalin solution for 15 minutes before analysis with the iQue Intellicyt system.
# [2] = target: T1, human TIGIT on CHO-K1 cells; assay: flow cytometry blocking assay: biotinylated hPVR-mIg on human TIGIT CHO-K1 cells, PE streptavidin (Examples 4 and 6)
# Description: (§2) The cells were washed 2 times before staining with PE streptavidin (BioLegend) for 20 min at 4 C. The cells were then washed, resuspended in 30 μl 7 AAD solution, and 35 μl of 10% neutral buffered formalin solution was added. The cells were then incubated for 15 min. Flow cytometry was performed and IC50 was calculated using iQue intellicyt system.
# [3] = target: T2, human TIGIT (antigen of Table 3) (human, UniProt Q495A1 23-141, limits assumed); assay: binding kinetics, method not described (Table 3, Binding Affinity)
# T2 construct: neither the method nor the antigen construct is described; limits and tags unknown; also called hu TIGIT
# T2 sequence: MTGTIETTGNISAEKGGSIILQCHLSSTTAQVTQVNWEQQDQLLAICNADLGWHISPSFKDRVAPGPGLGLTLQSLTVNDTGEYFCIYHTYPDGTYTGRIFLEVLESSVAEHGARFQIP
# [4] = target: T1, human TIGIT on CHO-K1 cells; assay: flow cytometry blocking assay of Example 4: biotinylated hPVR-mIg on human TIGIT CHO-K1 cells
# [5] = target: T1, human TIGIT on CHO-K1 cells; assay: flow cytometry, CHO-K1 cells expressing human TIGIT (binding assay of Example 5)
# Description: as §1
# [6] = target: T3, cyno TIGIT on CHO-K1 cells (cyno, UniProt A0A7N9I9V4 89-312); assay: flow cytometry blocking assay of Example 4: biotinylated hPVR-mIg on cyno TIGIT CHO-K1 cells
# T3 construct: whole, on cells; also called cyno-hu TIGIT
# T3 sequence (A0A7N9I9V4 entry or part of it): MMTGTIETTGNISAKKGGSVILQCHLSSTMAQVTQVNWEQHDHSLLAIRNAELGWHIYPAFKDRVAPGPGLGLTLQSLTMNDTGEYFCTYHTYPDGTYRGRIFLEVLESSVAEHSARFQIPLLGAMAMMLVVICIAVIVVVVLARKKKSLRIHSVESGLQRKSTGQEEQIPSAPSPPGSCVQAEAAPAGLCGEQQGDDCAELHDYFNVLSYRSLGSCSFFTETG
# [7] = target: T3, cyno TIGIT on CHO-K1 cells; assay: flow cytometry, CHO-K1 cells expressing cyno TIGIT (binding assay of Example 5)
# Description: as §1
# [8] = target: T1, human TIGIT on CHO-K1 cells; assay: flow cytometry competition with biotinylated hPVR-mIg on CHO-K1 cells expressing human TIGIT
# Description: as §2
# [9] = target: T1, human TIGIT on CHO-K1 cells; assay: flow cytometry competition assay: PVR (CD155) signal on human TIGIT CHO-K1 cells against titrated antibody (Example 3 names human PVR-human Fc, m15, with PE anti-human Fc)
# Text: Cells were then washed with FACS buffer and then re-suspended in 7-amino-actinomycin D (7AAD) solution before analysis with iQue intellicyt system.
# [10] = target: T4, His tagged human PD-1 protein (human, UniProt Q15116 25-170, limits assumed); assay: bio-layer interferometry (Octet RED96), antibody on anti-human IgG capture biosensors, His tagged human PD-1 as analyte, 1:1 global fit (Example 12)
# T4 construct: also called huPD-1-His; not shown: His tag
# T4 sequence (Q15116 25-170 limits assumed): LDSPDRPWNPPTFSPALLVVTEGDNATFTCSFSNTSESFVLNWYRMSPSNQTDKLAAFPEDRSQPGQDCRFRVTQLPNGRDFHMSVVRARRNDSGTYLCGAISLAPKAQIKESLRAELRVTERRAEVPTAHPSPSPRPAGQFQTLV
# Description: […] was carried out using the Octet RED96 system (ForteBio Octet RED96 System) to characterize the binding kinetics of antibodies against His tagged human PD-1 protein. 20 nM of antibody was loaded onto the anti-human IgG capture biosensors. Association of analyte (His tagged human PD-1 protein) was observed by placing the biosensors in wells containing 2 or 3 fold serial dilution of analytes (72 nM being the highest concentration) for 5 mins. Dissociation was measured after transfer of the biosensors into kinetic buffer alone and monitoring of the interferometry signal for 10 minutes. The observed on and off rates (Ka and Kd) were fit using a 1:1 binding global fit model comprising at least 5 concentrations tested, and the equilibrium binding constant KD was then calculated.
# [11] = target: T5, human PD-1 on CHO-K1 cells (human, UniProt Q15116 25-288); assay: flow cytometry blocking assay: FITC human PD-L1-Fc on human PD-1 CHO-K1 cells (Examples 11 and 15); title: PD-1 Blocking Activity Screening
# T5 construct: also called Human PD-1 transfected CHO-K1 cells
# T5 sequence (Q15116 25-288): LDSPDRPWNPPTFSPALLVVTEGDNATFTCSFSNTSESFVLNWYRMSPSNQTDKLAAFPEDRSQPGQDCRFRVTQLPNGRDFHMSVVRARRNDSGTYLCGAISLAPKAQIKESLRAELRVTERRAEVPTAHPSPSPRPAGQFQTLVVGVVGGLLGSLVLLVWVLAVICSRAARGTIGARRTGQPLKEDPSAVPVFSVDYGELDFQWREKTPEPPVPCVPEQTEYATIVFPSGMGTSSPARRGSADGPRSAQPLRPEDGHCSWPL
# Description: (§3) Human or Cyno PD-1 transfected CHO-K1 cells were washed with FACS buffer (0.5% BSA 2 mM EDTA in PBS) and re-suspended at a concentration of 10⁶ cells/ml. […] The cells were then washed and re-suspended in 30 μl 7 AAD solution; 35 μl 10% neutral buffered formalin solution was then added and incubated for 15 mins. before analysis using the iQue intellicyt system.
# [12] = target: T5, human PD-1 on CHO-K1 cells; assay: flow cytometry blocking assay: FITC human PD-L1-Fc on human PD-1 CHO-K1 cells (Examples 11 and 16); title: Blocking PD-L1 binding to PD-1
# Description: as §3
# [13] = target: T5, human PD-1 on CHO-K1 cells; assay: flow cytometry blocking assay: FITC human PD-L1-Fc on human PD-1 CHO-K1 cells (Example 11)
# Description: as §3
# [14] = target: T6, cyno PD-1 on CHO-K1 cells (cyno); assay: flow cytometry blocking assay of Example 11, PD-L1 on cyno PD-1 CHO-K1 cells; cyno taken from the legend paragraph 42 ('cyno-hu'), while Example 11 speaks of human PD-1 and human PD-L1 for this figure
# T6 construct: whole, on cells; also called cyno hu PD-1; Cyno PD-1 transfected CHO-K1 cells
# Description: as §3
# [15] = target: T5, human PD-1 on CHO-K1 cells; assay: flow cytometry blocking assay: FITC human PD-L1-Fc on human PD-1 CHO-K1 cells (Example 11); axis: % of PD-L1 Binding Signal; first of two legend entries printed PD-05 Human
# Description: as §3
# [16] = target: T5, human PD-1 on CHO-K1 cells; assay: flow cytometry blocking assay: FITC human PD-L1-Fc on human PD-1 CHO-K1 cells (Example 11; the legend paragraph 42 calls it binding to hu PD-L1)
# Description: as §3
binder,measurement,setting,value
B1,EC50,[1],0.4 nM
same,IC50,[2],1.2 nM
same,Kd,[3],5.44 nM
same,koff,[3],0.00376 s⁻¹
same,kon,[3],690000 M⁻¹ s⁻¹
same,IC50 (read off the curve),[4],~1 nM
same,EC50 (read off the curve),[5],~0.5 nM
same,IC50 (read off the curve),[6],~1 nM
same,EC50 (read off the curve),[7],~1 nM
same,IC50,[8],0.4 to 1.67 nM
B2,EC50,[1],0.23 nM
same,IC50 (read off the curve),[2],~0.4 nM
same,Kd,[3],0.67 nM
same,koff,[3],0.000538 s⁻¹
same,kon,[3],809000 M⁻¹ s⁻¹
same,IC50 (read off the curve),[9],~0.3 nM
same,IC50,[8],0.12 to 0.31 nM
B3,Kd,[10],2.2 nM
same,koff,[10],0.000272 s⁻¹
same,kon,[10],126000 M⁻¹ s⁻¹
same,IC50 (read off the curve),[11],~1 nM
same,IC50,[12],1.5 nM
same,IC50,[13],2.28 nM
B4,IC50,[14],1.6 nM
same,IC50,[15],0.56 nM
same,IC50,[16],0.56 nM
